Biological target: human PD-L1 expressed on the cell surface (CHO cells expressing human PD-L1; Promega CS187103 / 187103 cells) (human) (UniProt Q9NZQ7)
Sequence (Q9NZQ7 19-290): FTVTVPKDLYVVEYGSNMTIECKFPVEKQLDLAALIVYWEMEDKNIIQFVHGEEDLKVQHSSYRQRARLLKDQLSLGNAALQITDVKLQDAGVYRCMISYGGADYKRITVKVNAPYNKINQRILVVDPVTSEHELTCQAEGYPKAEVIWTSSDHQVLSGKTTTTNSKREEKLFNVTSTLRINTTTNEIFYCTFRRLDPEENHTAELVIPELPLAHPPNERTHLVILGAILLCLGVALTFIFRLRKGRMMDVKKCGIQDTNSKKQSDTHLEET

B1: 29E.2A3 (antibody, from another filing, V domains shown)
VH: EVQLQQSGPELVKPGASVKMSCKASGYTFTSYVMHWVKQKPGQGLEWIGYVNPFNDGTKYNEMFKGKATLTSDKSSSTAYMELSSLTSEDSAVYYCARQAWGYPWGQGTLVTVSA
VL: DIVLTQSPASLAVSLGQRATISCRATESVEYYGTSLVQWYQQKPGQPPKLLIYAASSVDSGVPARFSGSGSGTDFSLTIHPVEEDDIAMYFCQQSRRVPYTFGGGTKLEIK
In the case of B1, the EC50, PD-1/PD-L1 blockade (% PDL1 Blockade, NFAT-luciferase reporter) is reported as 0.17 nM.

Reference: patent publication US20240002514A1
